Measurements as given in publication PMC7137648.

Key:
Conditions in all cases: glycan lost; control: wild-type SR-F1(20-421)
[1] = MALDI-TOF mass, SDS-PAGE, N-terminal sequencing
[2] = limited tryptic and chymotryptic proteolysis, SDS-PAGE
[3] = Ni-NTA purified yield from 293-F supernatant

B1: SR-F1 (SREC-I, SCARF1): N289Q (protein)
parent chain: MGLGLLLPLLLLWTRGTQGSELDPKGQHVCVASSPSAELQCCAGWRQKDQECTIPICEGPDACQKDEVCVKPGLCRCKPGFFGAHCSSRCPGQYWGPDCRESCPCHPHGQCEPATGACQCQADRWGARCEFPCACGPHGRCDPATGVCHCEPGWWSSTCRRPCQCNTAAARCEQATGACVCKPGWWGRRCSFRCNCHGSPCEQDSGRCACRPGWWGPECQQQCECVRGRCSAASGECTCPPGFRGARCELPCPAGSHGVQCAHSCGRCKHNEPCSPDTGSCESCEPGWNGTQCQQPCLPGTFGESCEQQCPHCRHGEACEPDTGHCQRCDPGWLGPRCEDPCPTGTFGEDCGSTCPTCVQGSCDTVTGDCVCSAGYWGPSCNASCPAGFHGNNCSVPCECPEGLCHPVSGSCQPGSGSRDTALIAGSLVPLLLLFLGLACCACCCWAPRSDLKDRPARDGATVSRMKLQVWGTLTSLGSTLPCRSLSSHKLPWVTVSHHDPEVPFNHSFIEPPSAGWATDDSFSSDPESGEADEVPAYCVPPQEGMVPVAQAGSSEASLAAGAFPPPEDASTPFAIPRTSSLARAKRPSVSFAEGTKFAPQSRRSSGELSSPLRKPKRLSRGAQSGPEGREAEESTGPEEAEAPESFPAAASPGDSATGHRRPPLGGRTVAEHVEAIEGSVQESSGPVTTIYMLAGKPRGSEGPVRSVFRHFGSFQKGQAEAKVKRAIPKPPRQALNRKKGSPGLASGSVGQSPNSAPKAGLPGATGPMAVRPEEAVRGLGAGTESSRRAQEPVSGCGSPEQDPQKQAEEERQEEPEYENVVPISRPPEP
[1]
  other: proteolytic processing: increases, extra loss of 2.3–2.6 kDa compared with the N382Q and N393Q mutants
[2]
  structure_or_conformation: no change
[3]
  expression_or_secretion, other: protein purified per 100 ml supernatant: decreases, 70 vs 450

B2: SR-F1 (SREC-I, SCARF1): N393Q (protein)
parent chain: MGLGLLLPLLLLWTRGTQGSELDPKGQHVCVASSPSAELQCCAGWRQKDQECTIPICEGPDACQKDEVCVKPGLCRCKPGFFGAHCSSRCPGQYWGPDCRESCPCHPHGQCEPATGACQCQADRWGARCEFPCACGPHGRCDPATGVCHCEPGWWSSTCRRPCQCNTAAARCEQATGACVCKPGWWGRRCSFRCNCHGSPCEQDSGRCACRPGWWGPECQQQCECVRGRCSAASGECTCPPGFRGARCELPCPAGSHGVQCAHSCGRCKHNEPCSPDTGSCESCEPGWNGTQCQQPCLPGTFGESCEQQCPHCRHGEACEPDTGHCQRCDPGWLGPRCEDPCPTGTFGEDCGSTCPTCVQGSCDTVTGDCVCSAGYWGPSCNASCPAGFHGNNCSVPCECPEGLCHPVSGSCQPGSGSRDTALIAGSLVPLLLLFLGLACCACCCWAPRSDLKDRPARDGATVSRMKLQVWGTLTSLGSTLPCRSLSSHKLPWVTVSHHDPEVPFNHSFIEPPSAGWATDDSFSSDPESGEADEVPAYCVPPQEGMVPVAQAGSSEASLAAGAFPPPEDASTPFAIPRTSSLARAKRPSVSFAEGTKFAPQSRRSSGELSSPLRKPKRLSRGAQSGPEGREAEESTGPEEAEAPESFPAAASPGDSATGHRRPPLGGRTVAEHVEAIEGSVQESSGPVTTIYMLAGKPRGSEGPVRSVFRHFGSFQKGQAEAKVKRAIPKPPRQALNRKKGSPGLASGSVGQSPNSAPKAGLPGATGPMAVRPEEAVRGLGAGTESSRRAQEPVSGCGSPEQDPQKQAEEERQEEPEYENVVPISRPPEP
[2]
  structure_or_conformation: no change
[3]
  expression_or_secretion, other: protein purified per 100 ml supernatant: decreases, 200 vs 450

B3: SR-F1 (SREC-I, SCARF1): N382Q (protein)
parent chain: MGLGLLLPLLLLWTRGTQGSELDPKGQHVCVASSPSAELQCCAGWRQKDQECTIPICEGPDACQKDEVCVKPGLCRCKPGFFGAHCSSRCPGQYWGPDCRESCPCHPHGQCEPATGACQCQADRWGARCEFPCACGPHGRCDPATGVCHCEPGWWSSTCRRPCQCNTAAARCEQATGACVCKPGWWGRRCSFRCNCHGSPCEQDSGRCACRPGWWGPECQQQCECVRGRCSAASGECTCPPGFRGARCELPCPAGSHGVQCAHSCGRCKHNEPCSPDTGSCESCEPGWNGTQCQQPCLPGTFGESCEQQCPHCRHGEACEPDTGHCQRCDPGWLGPRCEDPCPTGTFGEDCGSTCPTCVQGSCDTVTGDCVCSAGYWGPSCNASCPAGFHGNNCSVPCECPEGLCHPVSGSCQPGSGSRDTALIAGSLVPLLLLFLGLACCACCCWAPRSDLKDRPARDGATVSRMKLQVWGTLTSLGSTLPCRSLSSHKLPWVTVSHHDPEVPFNHSFIEPPSAGWATDDSFSSDPESGEADEVPAYCVPPQEGMVPVAQAGSSEASLAAGAFPPPEDASTPFAIPRTSSLARAKRPSVSFAEGTKFAPQSRRSSGELSSPLRKPKRLSRGAQSGPEGREAEESTGPEEAEAPESFPAAASPGDSATGHRRPPLGGRTVAEHVEAIEGSVQESSGPVTTIYMLAGKPRGSEGPVRSVFRHFGSFQKGQAEAKVKRAIPKPPRQALNRKKGSPGLASGSVGQSPNSAPKAGLPGATGPMAVRPEEAVRGLGAGTESSRRAQEPVSGCGSPEQDPQKQAEEERQEEPEYENVVPISRPPEP
[2]
  structure_or_conformation: no change
[3]
  expression_or_secretion, other: protein purified per 100 ml supernatant: decreases, 85 vs 450
